biological target: T1, HLA-A*02:01 (Homo sapiens, UniProt P04439, D140Y/D185E/D98H/E176V/E277Q/G131W/G231S/I119V/I121R/I166T/I218V/L300P/L318F/N151K/N90K/P208A/P217A/Q86G/Q94H/R138H/R169H/T345S); assay: not given; type: binding; details: not given
T1 construct: Plasmid DNA encoding the BirA tagged luminal domain of MHC-I heavy chains HLA-A*02:01; made in house; Drosophila S2 cells (TAPBPR); gTAX synthetic (Genscript)

Point of comparison: TLACFVLAAV [Peptide 12], Tm 53.3 ± 0.6 °C. Against it:
- TLMNVLTLV [Peptide 15] — higher, 61.2 ± 0.6 °C
- VVFLHVTYV [Peptide 17] — lower, 52.3 ± 0.0 °C

same assay, conditions: p/HLA-A*02:01 prepared by TAPBPR-mediated peptide exchange, 10-fold molar excess of peptide, overnight 4° C.; DSF first derivative; ± SD of 3 replicates

Point of comparison: SLPGVFCGV [Peptide 11], Tm 59.3 ± 0.0 °C. Against it:
- GLIAIVMVTI [Peptide 23] — lower, 40.4 ± 0.6 °C
- LALLLLDRL [Peptide 27] — lower, 43.3 ± 1.5 °C
- TTLPKGFYA [Peptide 32] — lower, 46.3 ± 0.6 °C
- ILLLDQALV [Peptide 10] — lower, 52.3 ± 0.0 °C
- LITGRLQSL [Peptide 29] — lower, 44.4 ± 0.6 °C
- LQLPQGTTL [Peptide 28] — lower, 44.4 ± 1.1 °C
- VLQLPQGTTL [Peptide 21] — lower, 39.4 ± 0.0 °C
- NLNESLIDL [Peptide 4] — lower, 47.3 ± 0.6 °C
- ILLNKHIDA [Peptide 16] — lower, 43.4 ± 0.0 °C
- WLMWLIINL [Peptide 9] — lower, 42.4 ± 4.0 °C
- VLNDILSRL [Peptide 2] — lower, 50.3 ± 0.0 °C
- GLMWLSYFI [Peptide 6] — lower, 41.4 ± 7.9 °C
- SMWALIISV [Peptide 25] — lower, 52.3 ± 0.6 °C
- LLLLDRLNQL [Peptide 22] — lower, 42.4 ± 0.6 °C
- ALNTLVKQL [Peptide 1] — lower, 48.3 ± 0.6 °C
- GMSRIGMEV [Peptide 8] — lower, 48.3 ± 0.0 °C
- LLLQYGSFC [Peptide 31] — lower, 47.3 ± 0.6 °C
- KLPDDFTGCV [Peptide 13] — lower, 53.3 ± 0.0 °C
- LLLDRLNQL [Peptide 7] — lower, 54.3 ± 0.6 °C
- SIIAYTMSL [Peptide 14] — lower, 53.3 ± 0.6 °C
- ALNTPKDHI [Peptide 26] — lower, 44.4 ± 0.6 °C
- RLNEVAKNL [Peptide 3] — lower, 46.3 ± 0.6 °C
- IITTDNTFV [Peptide 24] — lower, 42.4 ± 0.6 °C

biological target: T2, gTAX/HLA-A*02:01 (Homo sapiens, UniProt P04439, D140Y/D185E/D98H/E176V/E277Q/G131W/G231S/I119V/I121R/I166T/I218V/L300P/L318F/N151K/N90K/P208A/P217A/Q86G/Q94H/R138H/R169H/T345S); assay: Native gel electrophoresis of TAPBPR-catalysed peptide exchange on gTAX/HLA-A*02:01 (Example 1); type: biochemical; details: overnight incubation, 10-fold molar excess of peptide, with TAPBPR
T2 construct: Plasmid DNA encoding the luminal domain of class I MHC (MHC-I) heavy chain HLA-A*02:01; made in house; Drosophila S2 cells (TAPBPR); gTAX synthetic (Genscript)

With “YPNVNIHNF [non-specific peptide, non-specific gp29 peptide used as a negative control]” the “peptide exchange on gTAX/HLA-A*02:01 (native gel)” value was “no exchange was observed”.

biological target: T1, HLA-A*02:01; assay: not given; type: binding; details: p*MHC-I/gTAX incubated with peptide and TAPBPR, 12% native gel

“YPNVNIHNF [non-specific peptide, non-specific gp29 peptide used as a negative control]” was tested, and the “band of exchanged pMHC-I on native gel” value was “no condensed band”.
